Test results from IntAct's records for PubMed 34029587.

Assays:
[1] = biological target: anm1_human PRMT1 (UniProt Q99873)
[2] = biological target: G3BP1 (UniProt Q13283)
Sequence of UniProt Q13283 (Q13283 whole entry, looked up): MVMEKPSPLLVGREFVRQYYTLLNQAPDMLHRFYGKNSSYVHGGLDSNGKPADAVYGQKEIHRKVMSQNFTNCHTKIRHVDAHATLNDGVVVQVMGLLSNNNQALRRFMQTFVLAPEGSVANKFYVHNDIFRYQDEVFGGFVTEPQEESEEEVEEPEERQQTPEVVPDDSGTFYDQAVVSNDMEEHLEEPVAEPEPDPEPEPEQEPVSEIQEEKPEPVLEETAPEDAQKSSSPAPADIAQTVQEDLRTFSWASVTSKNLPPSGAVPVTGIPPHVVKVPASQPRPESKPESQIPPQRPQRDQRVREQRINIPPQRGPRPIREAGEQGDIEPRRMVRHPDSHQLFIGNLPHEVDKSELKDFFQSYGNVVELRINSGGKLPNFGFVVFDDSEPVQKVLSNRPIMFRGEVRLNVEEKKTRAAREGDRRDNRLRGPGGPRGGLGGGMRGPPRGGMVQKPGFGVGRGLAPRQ

Sequence of UniProt Q99873 (Q99873 whole entry, looked up): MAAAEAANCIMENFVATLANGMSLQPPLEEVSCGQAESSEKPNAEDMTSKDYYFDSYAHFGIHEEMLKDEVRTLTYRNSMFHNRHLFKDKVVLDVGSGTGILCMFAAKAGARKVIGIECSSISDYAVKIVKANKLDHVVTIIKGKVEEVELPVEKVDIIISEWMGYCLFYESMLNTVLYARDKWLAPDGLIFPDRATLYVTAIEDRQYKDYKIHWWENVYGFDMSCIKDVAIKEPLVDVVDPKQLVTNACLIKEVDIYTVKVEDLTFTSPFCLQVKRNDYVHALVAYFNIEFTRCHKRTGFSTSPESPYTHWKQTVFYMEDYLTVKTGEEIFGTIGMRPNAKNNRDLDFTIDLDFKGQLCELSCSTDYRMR

| Substance | effect of a mutation on the interaction [1] | effect of a mutation on the interaction [2] |
| --- | --- | --- |
| Nucleoprotein (SARS-CoV-2) (from UniProt P0DTC9) R203K | with no effect | – |
| Nucleoprotein (SARS-CoV-2) (from UniProt P0DTC9) R68K | with no effect | – |
| Nucleoprotein (SARS-CoV-2) (from UniProt P0DTC9) R177K | – | with no effect |
